Assay results reported in the supplement of paper PMC12042874.
± gives the uncertainty stated by the source.

Assay: amyloid nucleation score (Sup35N fusion, yeast selection) (log enrichment); library NNK2; higher = more nucleation; inactive = no reads after selection
Summary of the method: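 Nucleation score: DiMSum log enrichment of output over input reads, centred on the mode score of non-aggregating sequences. Only sequences with at least 100 input reads were kept. Reads came from Illumina sequencing of plasmid inserts before and after 7 days of growth at 30°C without adenine and uracil, in psi-negative yeast expressing Sup35N fused to peptides of 20 random codons after 24 hours of induction with 100 μM copper sulfate.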

Substance	amyloid nucleation score
TYLWSLGYVSFQL	-0.206 ± 0.79
TYMSYFSSTWKILVGAHWRR	1.85 ± 0.18
TYPHVLTP	-0.022 ± 0.37
VACETRRRA	4.948 ± 0.04
VACHVR	0.975 ± 0.4
VAEVKRLHIYWRAPSFRSAN	-0.596 ± 0.79
VAEYGLENDWFLHWQICMNS	-0.618 ± 0.48
VAFKSTLQVLVANKFG	-0.627 ± 1
VAGSS	-0.101 ± 0.29
VALVSGVNNTKDMSRAPNRV	-0.19 ± 0.36
VATLRSRHFDEHSHVVFSSS	0.236 ± 0.29
VCDRFWFSLDLWLFIRTFRF	-0.679 ± 1.1
VCDVLYKFGYSKN	4.89 ± 0.058
VCGVNV	-0.363 ± 1.1
VCSNCNMDVTSYQASCKAYL	0.783 ± 0.53
VCSTLVSFHHQRVKKVDAV	-1.12 ± 0.78
VCTWYRVAIDRRINIS	1.96 ± 0.066
VDCWMSISCQDYDSKFKVKS	0.242 ± 0.77
VDHLFIRIHSVMIPAL	-0.447 ± 1.1
VDIEDGLG	0.13 ± 0.22
VDITRWIDVMVYF	-0.19 ± 0.62
VDIWVWVG	0.456 ± 0.6
VDLGMPSLWRSDGASPGGFF	0.277 ± 0.49
VDRFFLEARCLELTSQ	0.34 ± 0.5
VDRRNAKYWRGRKSTWVRGV	1.3 ± 0.26
VDRWDGSVHCSIGGNFYCSG	-0.545 ± 0.54

Substance	amyloid nucleation score
VEFLWGFWWYKPQRKSVGST	-1.54 ± 0.75
VEFVVPKI	-0.586 ± 1.1
VEINNNE	-0.065 ± 0.56
VEMRLGRDEIFNRHQKGIYA	2.02 ± 0.36
VEREDVHKGRRFAQACNNLV	0.495 ± 0.41
VETYT	0.022 ± 0.65
VEYINWRFIRNTYSVE	2.14 ± 0.12
VFAMDYDVCDNSTCHKGV	-0.057 ± 0.21
VFAYYIDRARSSRVPCTVAN	4.28 ± 0.12
VFDAKTFGGDTVFVAAEAHS	-0.669 ± 1
VFDSPLHQWFYIKLIMLSTL	inactive
VFDVISI	-0.064 ± 0.76
VFEAIMVYSFRRYFPPYGAF	2.62 ± 0.098
VFEYFRCPYIHNLLFFSAWL	1.9 ± 0.19
VFFGPTFCFVPYVNMRCLVP	8.082 ± 0.059
VFFLFYTMWRLVYFEPNMKS	-1.25 ± 0.62
VFGSVADMHM	inactive
VFKFMNMTYEYRAGKGITVH	inactive
VFLSGINH	-1.18 ± 1.1
VFQIHYMVGNVVCTWSWPNV	4.27 ± 0.056
VFRYAGRCRNGIVGLYGATM	4.677 ± 0.046
VFSNWVNVVWS	5.172 ± 0.039
VFSSFWVYKLYEFEASSNVR	-0.371 ± 0.45
VFTCGVVPYPYKNTLKYKCF	-0.319 ± 0.4
VFTSFVG	0.536 ± 0.46
VFVEVDVTGFNFRLE	-1.18 ± 0.48

Substance	amyloid nucleation score
VFWHMSIIHIVCRIILSKDW	inactive
VFYCKRVAMDNTSCRNSSYL	-0.536 ± 0.31
VGDWVQQVVFTRRSTSSRRV	inactive
VGFISDNYYWYNPKVNGIWV	-0.834 ± 0.27
VGFRRVTNMDRCSFSLCCCW	4.56 ± 0.064
VGHSIEALELTPIVVRYTYL	-0.341 ± 0.45
VGKRIVHIFCVEFGSLMGC	inactive
VGLVMHGIVLCLMLSHMSWR	0.354 ± 0.41
VGRGASRNFSCFSLVKFREK	3 ± 0.062
VGRQSCFVYMWCWTYHMWGL	1.37 ± 0.32
VGRRSSKYESAELRVGSEVV	1.71 ± 0.12
VGSSRFLRDGVTRGLSMSGS	-1.07 ± 0.41
VGVFNFAGTTTSVGVNVSYT	2.78 ± 0.1
VGVLNSIKPYLCVSAKRKCV	0.09 ± 0.74
VGVLSEDIYCSAQPYLGRSG	0.331 ± 0.4
VGVVGYVETSLLGLRRCG	-0.976 ± 0.54
VGVVLFFFVLCYWVKT	-0.79 ± 0.41
VHCCFGACGCSSWRLNLLAS	0.092 ± 0.49
VHIMNSLVGSIVLGSSRRLS	5.77 ± 0.062
VHRLC	1.38 ± 0.47
VHSGLYAKCVRLYMQNFPHL	0.192 ± 0.79
VHTAFRETLYRRDKMLCGMR	-0.709 ± 0.63
VIAVCLVLVSSDVKIGTRMG	1.84 ± 0.16
VIGAGCIEKQRTVEAGGCRG	1.23 ± 0.35
VIGCAQWFYFADMRGMPRNQ	4.95 ± 0.076
VILAIGNFSRI	3.08 ± 0.081

Substance	amyloid nucleation score
VILVSVASINSRCVIGFSKF	4.64 ± 0.07
VILYNGFDLSGSD	0.286 ± 0.44
VISHRKPFE	-0.283 ± 1
VITGYCA	2.48 ± 0.094
VITSYVRRQCVKFCCGARCR	8.347 ± 0.054
VIWIRTIKMHACTYVQQDVL	0.806 ± 0.45
VIYRSNLASRGMNHAVFSKR	-0.92 ± 0.28
VKGVWWYRIMS	0.785 ± 0.51
VKNFYNSSINGLGLYMNMRF	2.43 ± 0.068
VKTKAVTRVMIP	0.589 ± 0.35
VKWTTVVD	0.963 ± 0.26
VKWTVNEVYGCYYCTGSVYA	6.154 ± 0.042
VKYFSYDIVGVGREYYFKTT	-0.555 ± 0.76
VLAHNSGWNGTKETYCMSNG	-0.436 ± 0.54
VLCCPSKISTALKCWVGEAC	0.233 ± 0.62
VLDFQTSYMLPEFVRPGVGY	0.216 ± 0.25
VLESYFDTYM	-2 ± 0.76
VLHRLRSLLERFLFYVDLIS	0.355 ± 0.65
VLITKYSFTRLEFTIKVTSS	0.386 ± 0.57
VLMKGRDPSVSGLKIEYLGN	0.193 ± 0.19
VLMYIWDLVGGSLSFKKVLF	inactive
VLNEDVRGKANTVVSSMG	0.413 ± 0.24
VLNRGGETAYTSMFDVYYI	-0.097 ± 0.63
VLNRLERASSVREQGIIRGR	0.252 ± 0.29
VLPMVRMSINIVVGCWSQKL	3.79 ± 0.081
VLPTEYSGFFSTRQLPSLDS	0.137 ± 0.79

Substance	amyloid nucleation score
VLPYSRVSTS	0.007 ± 0.28
VLREDSIELWPDGTVGGRTG	1.35 ± 0.37
VLSLLMPVVRIVWKFN	-0.084 ± 0.76
VLSLSVDFSCKRSCIMDTQV	3.95 ± 0.087
VLSNLIFYLSPFCIMHLMR	3.27 ± 0.13
VLTALVYVEITF	5.41 ± 0.066
VLVGVEWFV	0.318 ± 0.38
VLVSGYDLVVVDRVYLGRMF	2.56 ± 0.085
VLVSLFLPLENYFG	-0.549 ± 1
VLWIGFYLNLYLPYLCNHVD	3.37 ± 0.076
VLYSFSGVTPWHKYPCNCV	0.256 ± 0.46
VMFEFNLAGSDSSDKAAMVT	0.014 ± 0.49
VMFWLPPTSGNSWSDCTHKI	inactive
VMIIFLDNKRYGKAPNCGRM	7.263 ± 0.07
VMLGHYTVLFGVKVRECREG	1.7 ± 0.19
VMRMWRVSMRF	6.068 ± 0.032
VMTARHVLWSNLRVRPRGHD	0.867 ± 0.67
VMYYEGG	-0.561 ± 0.63
VNAPGTSYGYYVLNVQWGGW	1.12 ± 0.26
VNIDGRDRDNFVNGRSIMLR	inactive
VNLWCRYDWGVPGDSWGRDG	2.92 ± 0.078
VNRDRAQLWVACITCRCNFR	8.986 ± 0.049
